From patent EP1506972A1 (Genentech Inc., dated 2005)

Columns and labels:
Assay in all cases: competitive phage ELISA, soluble IGFBP-1 vs coated IGFBP-1
[1] = target: T1, IGF-I G7A (G1S-A70V background) displayed on phage (human; bacteriophage M13)
T1 construct: not shown: M13 gene III fragment (residues 249-406, display carrier) and the IGF-g3 junction
T1 chain: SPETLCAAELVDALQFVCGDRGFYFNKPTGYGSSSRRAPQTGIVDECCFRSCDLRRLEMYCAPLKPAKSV

[2] = target: T2, IGF-I L10A (G1S-A70V background) displayed on phage (human; bacteriophage M13)
T2 construct: not shown: M13 gene III fragment (residues 249-406, display carrier) and the IGF-g3 junction
T2 chain: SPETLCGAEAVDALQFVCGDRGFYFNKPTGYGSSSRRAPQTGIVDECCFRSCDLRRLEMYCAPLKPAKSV

[3] = target: T3, IGF-I L14A (G1S-A70V background) displayed on phage (human; bacteriophage M13)
T3 construct: not shown: M13 gene III fragment (residues 249-406, display carrier) and the IGF-g3 junction
T3 chain: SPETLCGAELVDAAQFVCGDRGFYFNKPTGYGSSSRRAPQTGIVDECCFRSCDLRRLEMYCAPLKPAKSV

[4] = target: T4, IGF-I Q15A (G1S-A70V background) displayed on phage (human; bacteriophage M13)
T4 construct: not shown: M13 gene III fragment (residues 249-406, display carrier) and the IGF-g3 junction
T4 chain: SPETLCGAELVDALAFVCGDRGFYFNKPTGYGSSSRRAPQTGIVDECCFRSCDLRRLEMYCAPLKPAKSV

[5] = target: T5, IGF-I F16A (G1S-A70V background) displayed on phage (human; bacteriophage M13)
T5 construct: not shown: M13 gene III fragment (residues 249-406, display carrier) and the IGF-g3 junction
T5 chain: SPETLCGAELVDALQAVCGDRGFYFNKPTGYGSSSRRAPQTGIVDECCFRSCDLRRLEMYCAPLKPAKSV

[6] = target: T6, IGF-I V17A (G1S-A70V background) displayed on phage (human; bacteriophage M13)
T6 construct: not shown: M13 gene III fragment (residues 249-406, display carrier) and the IGF-g3 junction
T6 chain: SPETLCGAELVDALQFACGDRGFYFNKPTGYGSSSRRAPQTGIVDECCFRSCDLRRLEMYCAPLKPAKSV

[7] = target: T7, IGF-I G30A (G1S-A70V background) displayed on phage (human; bacteriophage M13)
T7 construct: not shown: Display carrier: M13 gene III protein fragment (residues 249-406) and the junction to it
T7 chain: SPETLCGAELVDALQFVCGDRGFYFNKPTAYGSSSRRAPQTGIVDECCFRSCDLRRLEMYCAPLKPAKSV

[8] = target: T8, wild-type IGF-I displayed on phage (double mutation restoring wild type) (human; bacteriophage M13, UniProt P69168 267-424)
T8 construct: range 249-406; also called IGF-I WT; WT

[9] = target: T9, IGF-I S51A (G1S-A70V background) displayed on phage (human; bacteriophage M13)
T9 construct: not shown: Display carrier: M13 gene III protein fragment (residues 249-406) and the junction to it
T9 chain: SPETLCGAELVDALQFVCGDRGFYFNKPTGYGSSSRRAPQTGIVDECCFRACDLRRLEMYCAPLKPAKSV

[10] = target: T10, IGF-I D53A (G1S-A70V background) displayed on phage (human; bacteriophage M13)
T10 construct: not shown: Display carrier: M13 gene III protein fragment (residues 249-406) and the junction to it
T10 chain: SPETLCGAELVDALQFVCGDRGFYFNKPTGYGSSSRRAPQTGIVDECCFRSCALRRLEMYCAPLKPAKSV

[11] = target: T11, IGF-I M59A (G1S-A70V background) displayed on phage (human; bacteriophage M13)
T11 construct: not shown: M13 gene III fragment (residues 249-406), the display partner, and its junction to IGF-I
T11 chain: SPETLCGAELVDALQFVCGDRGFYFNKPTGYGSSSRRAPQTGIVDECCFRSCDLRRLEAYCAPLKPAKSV

[12] = target: T12, IGF-I Y60A (G1S-A70V background) displayed on phage (human; bacteriophage M13)
T12 construct: not shown: M13 gene III fragment (residues 249-406), the display partner, and its junction to IGF-I
T12 chain: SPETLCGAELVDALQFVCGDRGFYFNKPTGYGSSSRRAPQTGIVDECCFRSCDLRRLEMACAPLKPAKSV

[13] = target: T13, IGF-I K65A (G1S-A70V background) displayed on phage (human; bacteriophage M13)
T13 construct: not shown: M13 gene III fragment (residues 249-406), the display partner, and its junction to IGF-I
T13 chain: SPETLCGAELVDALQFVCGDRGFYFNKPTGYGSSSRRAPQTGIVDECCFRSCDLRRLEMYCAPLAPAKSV

[14] = target: T14, IGF-I P66A (G1S-A70V background) displayed on phage (human; bacteriophage M13)
T14 construct: not shown: Display carrier: M13 gene III protein fragment (residues 249-406) and its junction to Val70

[15] = target: T15, IGF-I P2A (G1S-A70V background) displayed on phage (human; bacteriophage M13)
T15 construct: range 249-406

[16] = target: T16, IGF-I E3A (G1S-A70V background) displayed on phage (human; bacteriophage M13)
T16 construct: not shown: Display carrier: M13 gene III protein fragment (residues 249-406) and its junction to Val70

[17] = target: T17, IGF-I T4A (G1S-A70V background) displayed on phage (human; bacteriophage M13)
T17 construct: not shown: The display carrier: M13 gene III protein fragment (residues 249-406) and the junction to it
T17 chain: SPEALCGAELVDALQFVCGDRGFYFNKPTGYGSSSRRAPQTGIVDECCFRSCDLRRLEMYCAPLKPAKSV

[18] = target: T18, IGF-I L5A (G1S-A70V background) displayed on phage (human; bacteriophage M13)
T18 construct: not shown: The display carrier: M13 gene III protein fragment (residues 249-406) and the junction to it
T18 chain: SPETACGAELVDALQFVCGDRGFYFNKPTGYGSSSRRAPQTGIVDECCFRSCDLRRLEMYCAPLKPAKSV

- relative IC50 (IC50mut/IC50 G1S-A70V) [1]: > 100 fold
- relative IC50 (IC50mut/IC50 G1S-A70V) [2]: 37.9 fold
- relative IC50 (IC50mut/IC50 G1S-A70V) [3]: 4.5 fold
- relative IC50 (IC50mut/IC50 G1S-A70V) [4]: 1.7 fold
- relative IC50 (IC50mut/IC50 G1S-A70V) [5]: 7 fold
- relative IC50 (IC50mut/IC50 G1S-A70V) [6]: 5.2 fold
- relative IC50 (IC50mut/IC50 G1S-A70V) [7]: 0.9 fold
- relative IC50 (IC50mut/IC50 G1S-A70V) [8]: 1 fold
- relative IC50 (IC50mut/IC50 G1S-A70V) [9]: 1.6 fold
- relative IC50 (IC50mut/IC50 G1S-A70V) [10]: 1.9 fold
- relative IC50 (IC50mut/IC50 G1S-A70V) [11]: 1.6 fold
- relative IC50 (IC50mut/IC50 G1S-A70V) [12]: 0.8 fold
- relative IC50 (IC50mut/IC50 G1S-A70V) [13]: 1.5 fold
- relative IC50 (IC50mut/IC50 G1S-A70V) [14]: 1.1 fold
- relative IC50 (IC50mut/IC50 G1S-A70V) [15]: 1.3 fold
- relative IC50 (IC50mut/IC50 G1S-A70V) [16]: 33.9 fold
- relative IC50 (IC50mut/IC50 G1S-A70V) [17]: 2.4 fold
- relative IC50 (IC50mut/IC50 G1S-A70V) [18]: 6.7 fold
B1: human IGFBP-1 (other, UniProt P08833 26-259, looked up)
chain: APWQCAPCSAEKLALCPPVSASCSEVTRSAGCGCCPMCALPLGAACGVATARCARGLSCRALPGEQQPLHALTRGQGACVQESDASAPHAAEAGSPESPESTEITEEELLDNFHLMAPSEEDHSILWDAISTYDGSKALHVTNIKKWKEPCRIELYRVVESLAKAQETSGEEISKFYLPNCNKNGFYHSRQCETSMDGEAGLCWCVYPWNGKRIPGSPEIRGDPNCQIYFNVQN
notes: Secreted recombinant protein
